Source: paper PMC12680046

How the values were obtained:
[1] = target: mCherry-EGFR (L858R/T790M)-HomoFC (UniProt P00533); assay: split reporter
[2] = target: mCherry-BICD2N-EGFR (Ex19Del/T790M/C797S)-HomoFC
[3] = target: mCherry-BICD2N-EGFR (Ex19Del/T790M/C797S)-HomoFC; assay: split reporter

| Substance | percent reduction of EGFR oligomerization (HomoFC) [1] [%] | C/N ERK-KTR ratio after EGF stimulation [2] | HomoFC/mCherry ratio (EGF) [3] | fold lower oligomer signal than WT EGFR at the basal level [3] [fold] | fold reduction of the oligomer signal against the nonfused mutant [3] [fold] |
| --- | --- | --- | --- | --- | --- |
| YFP–DARPin (E69)–BICD2N (from UniProt Q8TD16 1-594) (designed binder) | 50 | – | – | – | – |
| mCherry-BICD2N-EGFR (Ex19Del/T790M/C797S)-HomoFC (from UniProt Q8TD16;P00533) (receptor) | – | 0.64 | 0.12 | 3.3 | 18.8 |
